Assay results taken from US20110131688A1 (SALK INSTITUTE FOR BIOLOGICAL STUDIES, published 2011).

T1: EIN3 full-length protein (ETHYLENE-…3 transcription factor) (Arabidopsis, UniProt O24606 1-628)
T1 construct: Full-length EIN3 in the direct yeast two-hybrid tests, cloned in pAS2 or pACT2; In the immunoblots it is the endogenous or overexpressed EIN3 from plant extracts; also called At3g20770
T1 sequence: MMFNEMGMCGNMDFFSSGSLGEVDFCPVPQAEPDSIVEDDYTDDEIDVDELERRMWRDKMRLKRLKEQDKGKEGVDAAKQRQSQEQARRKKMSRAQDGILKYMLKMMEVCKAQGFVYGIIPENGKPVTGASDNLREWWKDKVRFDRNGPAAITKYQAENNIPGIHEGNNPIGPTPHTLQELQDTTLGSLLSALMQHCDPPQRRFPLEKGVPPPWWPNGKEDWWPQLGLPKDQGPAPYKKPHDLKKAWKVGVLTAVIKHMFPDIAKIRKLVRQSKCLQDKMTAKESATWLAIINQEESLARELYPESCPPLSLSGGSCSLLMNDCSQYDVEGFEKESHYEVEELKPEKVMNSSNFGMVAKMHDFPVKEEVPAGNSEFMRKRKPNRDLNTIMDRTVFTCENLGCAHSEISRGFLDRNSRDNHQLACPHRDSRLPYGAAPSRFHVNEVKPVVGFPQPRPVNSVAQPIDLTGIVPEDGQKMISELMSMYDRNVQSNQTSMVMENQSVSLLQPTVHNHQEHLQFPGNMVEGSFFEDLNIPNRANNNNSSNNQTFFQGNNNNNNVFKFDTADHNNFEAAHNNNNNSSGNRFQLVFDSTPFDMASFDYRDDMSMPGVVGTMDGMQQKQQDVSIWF

B1: EBF1 (EIN3-binding F-box protein 1) (other)
chain: MSQIFSFAGENDFYRRGAIYPNPKDASLLLSLGSFADVYFPPSKRSRVVAPTIFSAFEKKPVSIDVLPDECLFEIFRRLSGPQERSACAFVSKQWLTLVSSIRQKEIDVPSKITEDGDDCEGCLSRSLDGKKATDVRLAAIAVGTAGRGGLGKLSIRGSNSAKVSDLGLRSIGRSCPSLGSLSLWNVSTITDNGLLEIAEGCAQLEKLELNRCSTITDKGLVAIAKSCPNLTELTLEACSRIGDEGLLAIARSCSKLKSVSIKNCPLVRDQGIASLLSNTTCSLAKLKLQMLNVTDVSLAVVGHYGLSITDLVLAGLSHVSEKGFWVMGNGVGLQKLNSLTITACQGVTDMGLESVGKGCPNMKKAIISKSPLLSDNGLVSFAKASLSLESLQLEECHRVTQFGFFGSLLNCGEKLKAFSLVNCLSIRDLTTGLPASSHCSALRSLSIRNCPGFGDANLAAIGKLCPQLEDIDLCGLKGITESGFLHLIQSSLVKINFSGCSNLTDRVISAITARNGWTLEVLNIDGCSNITDASLVSIAANCQILSDLDISKCAISDSGIQALASSDKLKLQILSVAGCSMVTDKSLPAIVGLGSTLLGLNLQQCRSISNSTVDFLVERLYKCDILS
notes: In the yeast two-hybrid assays the cDNA was cloned into pAS2 or pACT2 (Clontech), so the protein was a fusion with the vector's domain; also called FBL6; At2g25490
B2: EBF2 (EIN3-binding F-box protein 2) (other)
chain: MSGIFRFSGDEDCLLGGSMYLSPGSCPGVYYPARKRLRVAATSFYSGFEEKQTSIDVLPEECLFEILRRLPSGQERSACACVSKHWLNLLSSISRSEVNESSVQDVEEGEGFLSRSLEGKKATDLRLAAIAVGTSSRGGLGKLQIRGSGFESKVTDVGLGAVAHGCPSLRIVSLWNLPAVSDLGLSEIARSCPMIEKLDLSRCPGITDSGLVAIAENCVNLSDLTIDSCSGVGNEGLRAIARRCVNLRSISIRSCPRIGDQGVAFLLAQAGSYLTKVKLQMLNVSGLSLAVIGHYGAAVTDLVLHGLQGVNEKGFWVMGNAKGLKKLKSLSVMSCRGMTDVGLEAVGNGCPDLKHVSLNKCLLVSGKGLVALAKSALSLESLKLEECHRINQFGLMGFLMNCGSKLKAFSLANCLGISDFNSESSLPSPSCSSLRSLSIRCCPGFGDASLAFLGKFCHQLQDVELCGLNGVTDAGVRELLQSNNVGLVKVNLSECINVSDNTVSAISVCHGRTLESLNLDGCKNITNASLVAVAKNCYSVNDLDISNTLVSDHGIKALASSPNHLNLQVLSIGGCSSITDKSKACIQKLGRTLLGLNIQRCGRISSSTVDTLLENLWRCDILY
notes: In the yeast two-hybrid assays the cDNA was cloned into pAS2 or pACT2 (Clontech), so the protein was a fusion with the vector's domain; also called AAR27072.1
B3: ASK1, an Arabidopsis Skp1 protein (other, UniProt Q39255 1-160, looked up)
chain: MSAKKIVLKSSDGESFEVEEAVALESQTIAHMVEDDCVDNGVPLPNVTSKILAKVIEYCKRHVEAAASKAEAVEGAATSDDDLKAWDADFMKIDQATLFELILAANYLNIKNLLDLTCQTVADMIKGKTPEEIRTTFNIKNDFTPEEEEEVRRENQWAFE
notes: Yeast two-hybrid fusion in pAS2 or pACT2

Key:
[1] = biological target: T1, EIN3 full-length protein (ETHYLENE-…3 …); experiment: yeast two-hybrid, filter-lift beta-galactosidase
Text: (§1) We then directly tested the possible interaction between EIN3 full-length protein and individual F-box proteins. Using genome-wide microarray experiments, we narrowed the search for EIN3-interacting F-box proteins by first testing those genes whose RNA levels were regulated by ethylene (Alonso et al., Science 301, 653-657, 2003; H. G. and J. R. E., unpublished data). From this gene list, two closely related candidate F-box proteins were identified which were able to interact with EIN3 in yeast two-hybrid assays (FIGS. 4C and 4E). We designated these two F-box proteins as EBF1 and EBF2 (for EIN3-binding F-box protein 1 and 2). EBF1 was previously named as FBL6 with no function assigned (Xiao and Jang, 2000). These two proteins share 57% identity in amino acid sequence (FIG. 4A), and each contains a well-conserved F-box motif in the amino-terminus and 18 tandem leucine-rich repeats (LRRs) in the carboxyl terminus (FIGS. 4A and 4B). Because LRR domains in several F-box proteins contribute to the substrate binding (Gagne et al., Proc Natl Acad Sci 99, 11519-11524, 2002), we tested whether the C-terminal LRR domains in EBF1 and EBF2 were sufficient for EIN3 interaction. […]

[2] = biological target: T1, EIN3 full-length protein (ETHYLENE-…3 …); experiment: yeast two-hybrid (summary in Example 8)
Text: as §1

[3] = biological target: B2; experiment: yeast two-hybrid
Text: as §1

[4] = biological target: B1; experiment: yeast two-hybrid
Text: as §1

B1
binding result [1]: binds

B2
binding result [2]: binds

B3
binding result [3]: binds | binding result [4]: binds
